Measurements: US20230399641A1
Read-outs that look alike come from different tables or passages of the source.

Key:
[1] = molecular target: full-length human ACE2 mutant AAA/K353del over-expressed on hACE2-KO 293FT cells (human) (UniProt Q9BYF1)
[2] = molecular target: full-length human ACE2 mutant K353del over-expressed on hACE2-KO 293FT cells (human) (UniProt Q9BYF1)
[3] = molecular target: full-length human ACE2 mutant AKA/K353del over-expressed on hACE2-KO 293FT cells (human) (UniProt Q9BYF1)
[4] = molecular target: full-length human ACE2 mutant AAA/K353del over-expressed on hACE2-KO 293FT cells (human) (UniProt Q9BYF1); remark: listed apart in the source
[5] = molecular target: full-length human ACE2 mutant K353del over-expressed on hACE2-KO 293FT cells (human) (UniProt Q9BYF1); remark: listed apart in the source
[6] = molecular target: full-length human ACE2 mutant AKA/K353del over-expressed on hACE2-KO 293FT cells (human) (UniProt Q9BYF1); remark: listed apart in the source
[7] = molecular target: full-length human ACE2 mutant AKA/K353del over-expressed on hACE2-KO 293FT cells (human) (UniProt Q9BYF1); remark: listed apart in the source
[8] = molecular target: full-length human ACE2 mutant AAA/K353del over-expressed on hACE2-KO 293FT cells (human) (UniProt Q9BYF1); remark: listed apart in the source
[9] = molecular target: full-length human ACE2 mutant AKA/K353del over-expressed on hACE2-KO 293FT cells (human) (UniProt Q9BYF1); remark: listed apart in the source

Substance | % cells stained positive [1] | % cells stained positive [2] | % cells stained positive [3] | % of cells in the PE-positive (RBD-bound) gate (No hACE2) | % of cells in the PE-positive (RBD-bound) gate [4] | % of cells in the PE-positive (RBD-bound) gate [5] | % of cells in the PE-positive (RBD-bound) gate [6] | % of cells in the PE-positive (RBD-bound) gate [7] | % of cells in the PE-positive (RBD-bound) gate [8] | % of cells in the PE-positive (RBD-bound) gate [9]
receptor binding domain (RBD) of B.1.351 SARS-CoV-2 spike (residues 319-541) (from UniProt P0DTC2 319-541) (ligand) | 3.5% | 3.5% | 4% | 0.41% | 3.76% | 5.07% | 3.48% | – | – | –
receptor binding domain (RBD) of wildtype SARS-CoV-2 spike (residues 319-541) (from UniProt P0DTC2 319-541) (ligand) | – | 1.8% | – | – | – | – | – | 0.56% | – | –
receptor binding domain (RBD) of B.1.1.7 SARS-CoV-2 spike (residues 319-541) (from UniProt P0DTC2 319-541) (ligand) | 1.6% | 1.4% | 1.6% | – | – | – | – | – | – | –
receptor binding domain (RBD) of P.1 SARS-CoV-2 spike (residues 319-541) (from UniProt P0DTC2 319-541) (ligand) | 2.6% | 2.3% | 2.9% | – | – | – | – | – | 2.03% | 1.82%
